Experimental data as given in the supplement of paper PMC7877785.
± gives the uncertainty stated by the source.

Assay: self-splicing fitness, log relative to wild type (ln ratio); higher = more splicing; Tetrahymena group I intron in knt gene, E. coli kanamycin selection, DiMSum; sequences stand for … in CUCUCU…GGAGGGAAAAGUUAUCAGGCAUGCACCUGGUAGCUAGUCUUUAAACCAAUAGAUUGCAUCGGUUUAAAAGGCAAGACCGUCAAAUUGCGGGAAAGGGGUCAACAGCCGUUCAGUACCAAGUCUCAGGGGAAACUUUGAGAUGGCCUUGCAAAGGGUAUGGUAAUAAGCUGACGGACAUGGUCCUAACCACGCAGCCAAGUCCUAAGUCAACAGAUCUUCUGUUGAUAUGGAUGCAGUUCACAGACUAAAUGUCGGUCGGGGAAGAUGUAUUCUUCUCAUAAGAUAUAGUCGGACCUCUCCUUAAUGGGAGCUAGCGGAUGAAGUGAUGCAACACUGGAGCCGCUGGGAACUAAUUUGUAUGCGAAAGUAUAUUGAUUAGUUUUGGAGUACUCGUGGUCG
Method in brief: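 A randomised library covering all eight P1ex-region intron nucleotides was built with the intron in the knt kanamycin-resistance gene on pET-22b(+) and held in E. coli BL21(DE3). Cells were grown overnight at 37°C or 30°C on LB agar, with or without 25 μg/mL kanamycin, plus 100 μg/mL carbenicillin, 50 μM IPTG and 0.2% rhamnose, and pooled colonies were amplicon-sequenced on an Illumina HiSeq 2500. DiMSum fitness is the error-weighted combination of wild-type-normalised replicate fold changes, kanamycin versus none.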

Sequence	self-splicing fitness (ln) (30 °C)	self-splicing fitness (ln) (37 °C)
AGAUAGCAAUAUUACGAGUU	-2.21 ± 0.1	-0.588 ± 0.099
ACUUAGCAAUAUUACGCUAA	-2.99 ± 0.39	-3.09 ± 0.29
CUCAAGCAAUAUUACGGUGG	-2.01 ± 0.061	-1.1 ± 0.081
AGACAGCAAUAUUACGUCCG	-0.314 ± 0.12	-0.305 ± 0.15
UGCGAGCAAUAUUACGAGGG	-2.1 ± 0.13	-2.3 ± 0.17
AUGAAGCAAUAUUACGGUAU	-0.945 ± 0.066	-0.484 ± 0.086
UUGCAGCAAUAUUACGGGGG	-2.4 ± 0.17	-2.23 ± 0.24
AAUUAGCAAUAUUACGCUAG	-2.38 ± 0.13	-1.06 ± 0.13
AUAAAGCAAUAUUACGAGCA	-0.252 ± 0.074	-0.299 ± 0.082
CGGCAGCAAUAUUACGGGGC	-2.42 ± 0.18	-2.69 ± 0.33
ACAUAGCAAUAUUACGCGUG	-2.8 ± 0.1	-1.28 ± 0.12
GAGCAGCAAUAUUACGGGUU	-2.44 ± 0.14	-2.02 ± 0.16
CGGGAGCAAUAUUACGGUGA	-2.3 ± 0.33	
GUAUAGCAAUAUUACGACAU	-0.233 ± 0.014	0.0814 ± 0.033
CGUCAGCAAUAUUACGAUUC	-0.695 ± 0.096	0.147 ± 0.087
CCUGAGCAAUAUUACGGACG	-2.49 ± 0.16	-0.682 ± 0.12
ACUCAGCAAUAUUACGUUUC	-2.88 ± 0.17	-2.33 ± 0.21
GUAUAGCAAUAUUACGGCUU	-0.746 ± 0.13	1.21 ± 0.2
GGACAGCAAUAUUACGAGGU	-3.35 ± 0.21	-2.12 ± 0.14
CAUGAGCAAUAUUACGGCCA		-1.36 ± 0.41
AGUCAGCAAUAUUACGCCGA	-1.92 ± 0.25	-1.92 ± 0.3
AAUUAGCAAUAUUACGAGCC		-1.57 ± 0.47
UAUAAGCAAUAUUACGAUCA	-0.251 ± 0.1	0.847 ± 0.11
GUCGAGCAAUAUUACGCUAG	-3.53 ± 0.21	-1.93 ± 0.15
CACGAGCAAUAUUACGCCCU	-2.92 ± 0.3	

Sequence	self-splicing fitness (ln) (30 °C)	self-splicing fitness (ln) (37 °C)
AAAUAGCAAUAUUACGGUUA	-0.483 ± 0.077	-0.546 ± 0.08
GAAUAGCAAUAUUACGGAAG	-4.14 ± 0.39	-2.1 ± 0.25
CACCAGCAAUAUUACGAUAC	-3.58 ± 0.23	-1.94 ± 0.19
GGGCAGCAAUAUUACGGCGA	-0.562 ± 0.11	-0.245 ± 0.099
AACGAGCAAUAUUACGAGUA	-3.14 ± 0.17	-2.12 ± 0.14
CGUCAGCAAUAUUACGGAAC	-2.22 ± 0.27	-2.61 ± 0.25
UCGAAGCAAUAUUACGGGAU	-3.98 ± 0.31	-3.17 ± 0.32
UAGCAGCAAUAUUACGAAGG	-2.85 ± 0.12	-2.21 ± 0.19
UUUCAGCAAUAUUACGUUGC	-4.04 ± 0.29	-2.5 ± 0.24
CAUUAGCAAUAUUACGCUGU	-2.72 ± 0.13	-2.21 ± 0.18
CCUGAGCAAUAUUACGGAUU	-2.74 ± 0.18	-2.34 ± 0.16
UCAUAGCAAUAUUACGGAAG		-2.19 ± 0.33
AGCCAGCAAUAUUACGACGC	-1.66 ± 0.14	-0.853 ± 0.16
UGGGAGCAAUAUUACGGUAA	-2.32 ± 0.45	
UGUCAGCAAUAUUACGAUGA	0.232 ± 0.075	0.333 ± 0.09
CGCAAGCAAUAUUACGCGCU	-3.78 ± 0.16	-1.41 ± 0.12
CCAGAGCAAUAUUACGGCCG	-1.72 ± 0.16	-0.276 ± 0.31
GAGAAGCAAUAUUACGCAUG	-1.99 ± 0.11	-1.04 ± 0.14
ACGAAGCAAUAUUACGCAAU	-1.6 ± 0.091	-1.42 ± 0.094
CCAGAGCAAUAUUACGGCCU	-2.77 ± 0.13	-1.27 ± 0.17
UUCCAGCAAUAUUACGGUUA	0.496 ± 0.085	0.423 ± 0.087
AGCAAGCAAUAUUACGUGGC	-2.83 ± 0.15	-3.3 ± 0.21
GAGAAGCAAUAUUACGUCCU	-1.59 ± 0.23	
GCUAAGCAAUAUUACGAGUC	-3.37 ± 0.21	-1.96 ± 0.22
AUAAAGCAAUAUUACGAGAU	-2.31 ± 0.11	-1.22 ± 0.12

Sequence	self-splicing fitness (ln) (30 °C)	self-splicing fitness (ln) (37 °C)
AGGUAGCAAUAUUACGCCAG	-1.22 ± 0.02	-0.873 ± 0.037
CGUGAGCAAUAUUACGGUGG	-2.03 ± 0.082	-1.35 ± 0.1
UUGUAGCAAUAUUACGCAUU	-2.84 ± 0.43	-2.26 ± 0.32
AGAAAGCAAUAUUACGGGGG	-3.3 ± 0.15	-2.71 ± 0.17
AGCGAGCAAUAUUACGUUCU	-2.13 ± 0.14	-0.892 ± 0.14
UAUUAGCAAUAUUACGUUUG	-2.12 ± 0.12	-0.749 ± 0.13
AGCUAGCAAUAUUACGUCUA	-1.49 ± 0.11	-0.745 ± 0.13
UAGUAGCAAUAUUACGAUCC	-3.16 ± 0.45	-2.22 ± 0.4
CUACAGCAAUAUUACGGAGU	-3.21 ± 0.13	-2.89 ± 0.16
UUGAAGCAAUAUUACGGUCA	-0.522 ± 0.075	-0.262 ± 0.099
AGGUAGCAAUAUUACGUCUU	-0.915 ± 0.014	-0.371 ± 0.033
UGCUAGCAAUAUUACGCUUU	-2.16 ± 0.14	-2.22 ± 0.19
UCAGAGCAAUAUUACGUGCC	-2.62 ± 0.41	
GCGUAGCAAUAUUACGAGAA	-1.15 ± 0.29	-1.9 ± 0.2
GUACAGCAAUAUUACGCUCC	-1.81 ± 0.29	-0.404 ± 0.23
GCGAAGCAAUAUUACGACUC	-0.212 ± 0.086	0.367 ± 0.1
GCAAAGCAAUAUUACGAACU	-0.569 ± 0.094	-0.26 ± 0.13
UGACAGCAAUAUUACGAUGC	-3.94 ± 0.28	-2.72 ± 0.28
AACGAGCAAUAUUACGCUGU	-2.67 ± 0.45	-2.99 ± 0.4
UCCCAGCAAUAUUACGCGUA	-0.178 ± 0.066	0.0254 ± 0.079
UGCUAGCAAUAUUACGCCUU	-2.68 ± 0.23	0.255 ± 0.17
ACUGAGCAAUAUUACGUGCA	-2.8 ± 0.2	-2.36 ± 0.25
AUCCAGCAAUAUUACGCGGU		-3.32 ± 0.42
UCUGAGCAAUAUUACGAACA	-3.18 ± 0.34	-3.46 ± 0.35
ACCCAGCAAUAUUACGCCUU	-0.51 ± 0.062	0.161 ± 0.081

Sequence	self-splicing fitness (ln) (30 °C)	self-splicing fitness (ln) (37 °C)
CACAAGCAAUAUUACGUAAA	-3.74 ± 0.21	-2.39 ± 0.23
CGCAAGCAAUAUUACGACCA	-0.724 ± 0.1	-0.453 ± 0.12
CAAAAGCAAUAUUACGUCCU	-2.18 ± 0.087	-0.725 ± 0.09
GCCCAGCAAUAUUACGAUGU	0.0553 ± 0.048	0.51 ± 0.069
CUGCAGCAAUAUUACGUCUG	-2.34 ± 0.16	-0.738 ± 0.17
CCCAAGCAAUAUUACGGUCC	-2.66 ± 0.15	-2.65 ± 0.21
GAUAAGCAAUAUUACGCAGC	-3.45 ± 0.47	-0.777 ± 0.29
UCAGAGCAAUAUUACGCCAG	-2.62 ± 0.3	-0.0811 ± 0.28
UAAUAGCAAUAUUACGGGUU	-3.33 ± 0.24	-2.65 ± 0.21
CGAUAGCAAUAUUACGUGAA	-4.38 ± 0.22	-2.16 ± 0.16
AAUAAGCAAUAUUACGAGGU	-4.58 ± 0.27	-2.11 ± 0.18
AGAUAGCAAUAUUACGCGGG	-1.66 ± 0.13	-1.68 ± 0.15
ACCUAGCAAUAUUACGGUCA	-1.74 ± 0.091	-0.306 ± 0.082
GUACAGCAAUAUUACGUUCA	-1.51 ± 0.15	-0.775 ± 0.17
AAAAAGCAAUAUUACGUAAG	-1.08 ± 0.061	-0.0629 ± 0.081
GCUGAGCAAUAUUACGCGCU	-3.05 ± 0.31	-1.53 ± 0.36
AUGAAGCAAUAUUACGCAGU	-1.36 ± 0.11	-0.415 ± 0.11
GUAGAGCAAUAUUACGAGUG	-1.59 ± 0.18	-2.1 ± 0.21
AAUUAGCAAUAUUACGCCGU	-0.928 ± 0.23	-0.523 ± 0.26
UGAUAGCAAUAUUACGCCUA	-0.439 ± 0.15	-0.227 ± 0.16
UUCGAGCAAUAUUACGCGUG	-1.06 ± 0.13	-0.676 ± 0.14
CAUAAGCAAUAUUACGACGU	-2.51 ± 0.14	-1.27 ± 0.15
ACGUAGCAAUAUUACGCUUA	-1.49 ± 0.11	-0.764 ± 0.12
